# Bridge positions count the residues as written; N and C are the ends. Ends that are not written are not given here.
# B1: [^18F]albumin: albumin radiolabeled by conjugating Compound 3 to pendant amine groups (protein, UniProt P02770 25-608, looked up)
# Albumin: EAHKSEIAHRFKDLGEQHFKGLVLIAFSQYLQKCPYEEHIKLVQEVTDFAKTCVADENAENCDKSIHTLFGDKLCAIPKLRDNYGELADCCAKQEPERNECFLQHKDDNPNLPPFQRPEAEAMCTSFQENPTSFLGHYLHEVARRHPYFYAPELLYYAEKYNEVLTQCCTESDKAACLTPKLDAVKEKALVAAVRQRMKCSSMQRFGERAFKAWAVARMSQRFPNAEFAEITKLATDVTKINKECCHGDLLECADDRAELAKYMCENQATISSKLQACCDKPVLQKSQCLAEIEHDNIPADLPSIAADFVEDKEVCKNYAEAKDVFLGTFLYEYSRRHPDYSVSLLLRLAKKYEATLEKCCAEGDPPACYGTVLAEFQPLVEEPKNLVKTNCELYEKLGEYGFQNAVLVRYTQKAPQVSTPTLVEAARNLGRVGTKCCTLPEAQRLPCVEDYLSAILNRLCVLHEKTPVSEKVTKCCSGSLVERRPCFSALTVDETYVPKEFKAETFTFHSDICTLPDKEKQIKKQTALAELVKHKPKATEDQLKTVMGDFAQFVDKCCKAADKDNCFATEGPNLVARSKEALA
# modifications: 18F-labeled via Compound 3
# notes: albumin radiolabeled by conjugating Compound 3 to pendant amine groups
# How the values were obtained:
# [1] = molecular target: T1, c-MET receptors (Homo sapiens, UniProt P08581); assay: In vitro saturation binding assay with MKN-45, SNU-16 or U87-MG cells
# T1 construct: endogenous in cells; host or cells: MKN-45, SNU-16 or U87-MG cells
# T1 sequence (P08581 25-1390): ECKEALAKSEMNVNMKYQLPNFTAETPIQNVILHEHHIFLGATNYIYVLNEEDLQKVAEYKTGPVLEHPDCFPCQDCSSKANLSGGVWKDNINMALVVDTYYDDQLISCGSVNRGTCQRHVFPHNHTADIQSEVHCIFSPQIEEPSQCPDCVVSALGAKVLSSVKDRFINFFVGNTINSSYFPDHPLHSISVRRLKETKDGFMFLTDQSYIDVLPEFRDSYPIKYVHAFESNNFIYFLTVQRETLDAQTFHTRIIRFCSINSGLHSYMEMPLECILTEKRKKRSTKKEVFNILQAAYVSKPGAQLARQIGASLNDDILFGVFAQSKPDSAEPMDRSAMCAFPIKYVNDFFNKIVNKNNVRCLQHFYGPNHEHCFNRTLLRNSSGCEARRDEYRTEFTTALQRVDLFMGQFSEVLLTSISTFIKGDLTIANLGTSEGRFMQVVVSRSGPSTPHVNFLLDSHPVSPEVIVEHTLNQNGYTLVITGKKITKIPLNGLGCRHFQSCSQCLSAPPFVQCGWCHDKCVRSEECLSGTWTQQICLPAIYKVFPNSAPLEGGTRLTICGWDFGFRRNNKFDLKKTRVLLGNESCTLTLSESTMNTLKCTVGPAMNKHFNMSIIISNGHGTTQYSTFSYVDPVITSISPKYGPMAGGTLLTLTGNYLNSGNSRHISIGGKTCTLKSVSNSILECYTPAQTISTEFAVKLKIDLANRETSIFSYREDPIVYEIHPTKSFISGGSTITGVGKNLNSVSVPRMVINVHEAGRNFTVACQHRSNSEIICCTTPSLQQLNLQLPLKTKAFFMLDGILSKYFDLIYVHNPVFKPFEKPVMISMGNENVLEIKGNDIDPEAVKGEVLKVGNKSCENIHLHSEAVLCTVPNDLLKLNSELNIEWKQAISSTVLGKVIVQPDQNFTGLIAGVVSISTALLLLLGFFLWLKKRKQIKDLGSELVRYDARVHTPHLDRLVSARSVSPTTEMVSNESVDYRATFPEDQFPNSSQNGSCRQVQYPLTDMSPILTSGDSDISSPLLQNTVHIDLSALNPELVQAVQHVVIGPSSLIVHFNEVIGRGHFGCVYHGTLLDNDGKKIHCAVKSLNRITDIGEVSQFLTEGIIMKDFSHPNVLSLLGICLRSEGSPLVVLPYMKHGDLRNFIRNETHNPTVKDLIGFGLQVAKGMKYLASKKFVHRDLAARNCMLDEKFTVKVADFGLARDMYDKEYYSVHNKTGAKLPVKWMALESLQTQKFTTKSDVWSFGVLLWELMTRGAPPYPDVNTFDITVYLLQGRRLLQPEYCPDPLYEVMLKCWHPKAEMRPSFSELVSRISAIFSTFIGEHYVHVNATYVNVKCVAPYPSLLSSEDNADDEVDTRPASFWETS
# Protocol: In vitro saturation assays were performed to determine the binding affinity of Compound 1 for c-MET receptors. Increasing concentrations of Compound 1 were incubated with MKN-45, SNU-16 or U87-MG cells. Non-specific binding was determined in the presence of an unlabeled Met peptide (10^−5 M). Bound peptide was separated from free peptide and the radioactive content was determined. Data was analyzed using a one site binding hyperbola. […] The binding constant was determined to be 3.9 nM. In addition, the estimated Met expression levels (2.4×10^6 receptors per cell) were consistent with known expression in MKN-45, SNU-16, and U87-MG cells. […] (data not shown)
# [2] = tested on: SNU-16 (moderate Met) xenografts; assay type: in vivo, mouse
# [3] = tested on: U87-MG (low Met) xenografts; assay type: in vivo, mouse
# [4] = tested on: MKN-45 (high Met) xenografts
# [5] = tested on: human prostate cancer cells with known high PSMA expression; assay: In vivo biodistribution and PET images in xenograft mouse models of high-PSMA prostate tumor cell line; details: data not shown
# [6] = reported labeled albumin; cited from earlier work
molecule,measurement,setting,value
"Compound 1: 18F-labeled c-Met peptide; cyclic peptide of SEQ ID NO: 1 reacted with [18F]fluoronicotinic acid-2,3,5,6-tetrafluorophenyl ester (AGSCYCSGPPRFECWCYETEGTGGGK; disulfide 6-14, 4-16; also: [18F]fluoronicotinoyl conjugated via tetrafluorophenyl ester, site not given here)",specific binding to Met,"[1]; MKN-45 cells, non-specific binding with unlabeled Met peptide 10^−5 M",> 90%
same,Kd,"[1]; MKN-45 cells, saturation assay, one site binding hyperbola, read-out: binding constant",3.9 nM
same,ability to distinguish c-MET concentrations,"[1]; SNU-16 and U87-MG cell lines, data not shown",can distinguish c-MET concentrations
same,estimated Met expression levels,[1]; from saturation binding,2.4×10^6 receptors per cell
same,PET tumor discernibility,[2]; SNU-16 tumors,discernable
same,Tumor:Muscle ratio over time course,"[2]; mouse, in vivo",7:1-18:1
same,fold decrease of T:M vs MKN-45 T:M,"[2]; mouse, in vivo",2-60 fold
same,fold decrease of tumor uptake vs MKN-45 tumors,"[2]; mouse, in vivo",2-6 fold
same,PET tumor discernibility,[3]; U87-MG tumors,more difficult to distinguish
same,Tumor:Muscle ratio over time course,"[3]; mouse, in vivo",3:1-5:1
same,fold decrease of tumor uptake vs MKN-45 tumors,"[3]; mouse, in vivo",3-40 fold
same,PET visualization,"[4]; MKN xenografts, 30 to 120 min post-injection","tumors, kidneys and bladder could be visualized"
same,PET tumor discernibility,"[4]; MKN-45 and SNU-16 xenografts, images at 30, 60, 120 min",discerned as early as 30 min
same,decrease of T:M ratio on blocking with unlabeled Met peptide,"[4]; MKN-45 xenografts, compared to unblocked",65%
same,decrease of tumor uptake from 30 to 120 min,"[4]; mouse, in vivo",approximately 37%
same,tumor retention and non-target clearance,"[4]; mouse, in vivo",highly retained in MKN-45 tumors (high Met expression) and rapidly cleared from non-target tissue
O=C(O)CC[C@H](NC(=O)N[C@@H](CCCCNC(=O)c1ccc([18F])nc1)C(=O)O)C(=O)O [[^18F]DCFPyL],biodistributions and PET images vs previously reported results,[5],comparable with previously reported results
B1,blood pool imaging property,[6],excellent blood pool imaging property

# From US20190151483A1, “METHODS OF MAKING 18F-LABELED PRECURSORS AND PEPTIDES, LABELED C-MET BINDING PEPTIDES, AND METHODS OF USE THEREOF” (The United States of America, as Represented by the …, priority 2016, published 2019)
